# Data from patent US20230357429A1 (JANUX THERAPEUTICS, published 2023).
# Read-outs that look alike come from different tables or passages of the source. Where no end group is shown, it is not given here.
# T1: Peptide-68 (cysteine pairing not given here; also: biotinylated, site not given here)
# T1 construct: mask peptide for the CD3 scFv
# T1 peptide: DWCWYSPDNDGLCD
# T2: Peptide-66 (cysteine pairing not given here; also: biotinylated, site not given here)
# T2 construct: mask peptide for the CD3 scFv
# T2 peptide: GSQCLGPEWEVCPY
# T3: Peptide-75 (cysteine pairing not given here; also: biotinylated, site not given here)
# T3 construct: mask peptide for the CD3 scFv
# T3 peptide: GSACLGPEWEVCPY
# T4: Peptide-72 (cysteine pairing not given here; also: biotinylated, site not given here)
# T4 construct: mask peptide for the CD3 scFv
# T4 peptide: AYCGPEFDESVGCM
# T5: Peptide-71 (cysteine pairing not given here; also: biotinylated, site not given here)
# T5 construct: mask peptide for the CD3 scFv
# T5 peptide: VDCGPDGDESILCY
# T6: Peptide-74 (cysteine pairing not given here; also: biotinylated, site not given here)
# T6 construct: mask peptide for the CD3 scFv
# T6 peptide: ASQCLGPEWEVCPY
# T7: Peptide-69 (cysteine pairing not given here; also: biotinylated, site not given here)
# T7 construct: mask peptide for the CD3 scFv
# T7 peptide: SECLVDLQSDPCYW
# T8: Peptide-67 (cysteine pairing not given here; also: biotinylated, site not given here)
# T8 construct: mask peptide for the CD3 scFv
# T8 peptide: VYCGPEFDESVGCM
# T9: Peptide-76 (cysteine pairing not given here; also: biotinylated, site not given here)
# T9 construct: mask peptide for the CD3 scFv
# T9 peptide: YLCGPDADETLACY
# T10: Peptide-77 (cysteine pairing not given here; also: biotinylated, site not given here)
# T10 construct: mask peptide for the CD3 scFv
# T10 peptide: YLCGPDTDETLACY
# T11: Peptide-70 (cysteine pairing not given here; also: biotinylated, site not given here)
# T11 construct: mask peptide for the CD3 scFv
# T11 peptide: YLCGPDGDETLACY
# B1: TCE-20 (anti-CD3 scFv S110A; anti-TROP2 wt) (bispecific antibody)
# light: DIQLTQSPSSLSASVGDRVSITCKASQDVSIAVAWYQQKPGKAPKLLIYSASYRYTGVPDRFSGSGSGTDFTLTISSLQPEDFAVYYCQQHYITPLTFGAGTKVEIKRTVAAPSVFIFPPSDEQLKSGTASVVCLLNNFYPREAKVQWKVDNALQSGNSQESVTEQDSKDSTYSLSSTLTLSKADYEKHKVYACEVTHQGLSSPVTKSFNRGEC
# heavy: not shown
# notes: scFv on the Fab heavy chain; also called TCE-20 (S110A)
# B2: TCE-38 (anti-CD3 scFv F240A; anti-TROP2 F108A) (bispecific antibody)
# light: DIQLTQSPSSLSASVGDRVSITCKASQDVSIAVAWYQQKPGKAPKLLIYSASYRYTGVPDRFSGSGSGTDFTLTISSLQPEDFAVYYCQQHYITPLTFGAGTKVEIKRTVAAPSVFIFPPSDEQLKSGTASVVCLLNNFYPREAKVQWKVDNALQSGNSQESVTEQDSKDSTYSLSSTLTLSKADYEKHKVYACEVTHQGLSSPVTKSFNRGEC
# heavy: not shown
# notes: scFv on the Fab heavy chain
# B3: Peptide-73 (peptide)
# peptide: VYCGPEFDESVGCA
# modifications: cysteine pairing not given here; also: biotinylated, site not given here
# notes: mask peptide for the CD3 scFv
# Legend:
# Peptide-68 = target: T1, Peptide-68; assay: ELISA, TCE on captured biotin-peptide
# Peptide-66 = target: T2, Peptide-66; assay: ELISA, TCE on captured biotin-peptide
# Peptide-75 = target: T3, Peptide-75; assay: ELISA, TCE on captured biotin-peptide
# Peptide-73 [1] = target: B3; assay: ELISA, TCE on captured biotin-peptide
# Peptide-72 = target: T4, Peptide-72; assay: ELISA, TCE on captured biotin-peptide
# Peptide-71 = target: T5, Peptide-71; assay: ELISA, TCE on captured biotin-peptide
# Peptide-74 = target: T6, Peptide-74; assay: ELISA, TCE on captured biotin-peptide
# Peptide-69 = target: T7, Peptide-69; assay: ELISA, TCE on captured biotin-peptide
# Peptide-67 = target: T8, Peptide-67; assay: ELISA, TCE on captured biotin-peptide
# Peptide-76 = target: T9, Peptide-76; assay: ELISA, TCE on captured biotin-peptide
# Peptide-77 = target: T10, Peptide-77; assay: ELISA, TCE on captured biotin-peptide
# Peptide-70 = target: T11, Peptide-70; assay: ELISA, TCE on captured biotin-peptide
# Peptide-73 [2] = target: B3; assay: ELISA, TCE on captured biotin-peptide
# [3] = target: T12, CD3 (biotinylated CD3 antigen) (human, UniProt P07766 23-126, limits assumed, biotinylated (site not stated)); assay: ELISA, TCE on captured biotin-CD3
# T12 construct: also called CD3ε; human CD3
# [4] = target: T13, TCE-10 (anti-CD3 scFv R100A; anti-TROP2 wt); assay: competition ELISA, TCE on captured CD3; Table 40 peptide panel (FIGS. 91-102), limit >100 µM
# T13 construct: scFv on the Fab heavy chain; also called TCE-10 (R100A)
# [5] = target: B1; assay: as above
# [6] = target: B2; assay: competition ELISA, TCE on captured CD3
# [7] = target: T14, TCE-36 (anti-CD3 scFv H101A; anti-TROP2 F108A); assay: competition ELISA, TCE on captured CD3
# T14 construct: scFv on the Fab heavy chain
# [8] = target: T15, TCE-37 (anti-CD3 scFv F104A; anti-TROP2 F108A); assay: competition ELISA, TCE on captured CD3
# T15 construct: scFv on the Fab heavy chain
# [9] = target: T16, TCE-7 (anti-CD3 scFv wt; anti-TROP2 F108A); assay: competition ELISA, TCE on captured CD3
# T16 construct: scFv on the Fab heavy chain
# [10] = target: T17, TCE-39 (anti-CD3 scFv P41S, A49G, N87S, L150F, T151S, G163R, P175A, K181T, T200V, A202D, L208I, G211N, L217I, …); assay: competition ELISA, TCE on captured CD3
# T17 construct: scFv on the Fab heavy chain
# [11] = target: T18, TCE-33 (anti-CD3 scFv F240A; anti-TROP2 wt); assay: competition ELISA, TCE on captured CD3
# T18 construct: scFv on the Fab heavy chain; also called TCE-33 (F240A)
# [12] = target: T19, TCE-17 (anti-CD3 scFv S107A; anti-TROP2 wt); assay: competition ELISA, TCE on captured CD3
# T19 construct: scFv on the Fab heavy chain
# [13] = target: T20, TCE-19 (anti-CD3 scFv I109A; anti-TROP2 wt); assay: competition ELISA, TCE on captured CD3
# T20 construct: scFv on the Fab heavy chain
# [14] = target: T21, TCE-27 (anti-CD3 scFv Y234A; anti-TROP2 wt); assay: competition ELISA, TCE on captured CD3
# T21 construct: scFv on the Fab heavy chain
# [15] = target: T22, TCE-32 (anti-CD3 scFv V239A; anti-TROP2 wt); assay: competition ELISA, TCE on captured CD3
# T22 construct: scFv on the Fab heavy chain
# [16] = target: T23, TCE-12 (anti-CD3 scFv G102A; anti-TROP2 wt); assay: competition ELISA, TCE on captured CD3
# T23 construct: scFv on the Fab heavy chain
# [17] = target: T24, TCE-29 (anti-CD3 scFv N236A; anti-TROP2 wt); assay: competition ELISA, TCE on captured CD3
# T24 construct: scFv on the Fab heavy chain
# [18] = target: T25, TCE-30 (anti-CD3 scFv R237A; anti-TROP2 wt); assay: competition ELISA, TCE on captured CD3
# T25 construct: scFv on the Fab heavy chain
# [19] = target: T26, TCE-13 (anti-CD3 scFv N103A; anti-TROP2 wt); assay: competition ELISA, TCE on captured CD3
# T26 construct: scFv on the Fab heavy chain; also called TCE-13 (N103A)
# [20] = target: T27, TCE-25 (anti-CD3 scFv L232A; anti-TROP2 wt); assay: competition ELISA, TCE on captured CD3
# T27 construct: scFv on the Fab heavy chain
# [21] = target: T28, TCE-15 (anti-CD3 scFv G105A; anti-TROP2 wt); assay: competition ELISA, TCE on captured CD3
# T28 construct: scFv on the Fab heavy chain
# [22] = target: T13, TCE-10 (anti-CD3 scFv R100A; anti-TROP2 …); assay: competition ELISA, TCE on captured CD3
# [23] = target: T29, TCE-28 (anti-CD3 scFv S235A; anti-TROP2 wt); assay: competition ELISA, TCE on captured CD3
# T29 construct: scFv on the Fab heavy chain
# [24] = target: T30, TCE-16 (anti-CD3 scFv N106A; anti-TROP2 wt); assay: competition ELISA, TCE on captured CD3
# T30 construct: scFv on the Fab heavy chain
# [25] = target: T31, TCE-18 (anti-CD3 scFv Y108A; anti-TROP2 wt); assay: competition ELISA, TCE on captured CD3
# T31 construct: scFv on the Fab heavy chain
# [26] = target: T32, TCE-24 (anti-CD3 scFv V231A; anti-TROP2 wt); assay: competition ELISA, TCE on captured CD3
# T32 construct: scFv on the Fab heavy chain
# [27] = target: T33, TCE-1 (anti-CD3 scFv wt; anti-TROP2 Fab wt); assay: competition ELISA, TCE on captured CD3
# T33 construct: anti-CD3 scFv fused to the N-terminus of the anti-TROP2 Fab heavy chain; also called TCE-1 (wt)
# [28] = target: B1; assay: competition ELISA, TCE on captured CD3
# [29] = target: T34, TCE-14 (anti-CD3 scFv F104A; anti-TROP2 wt); assay: competition ELISA, TCE on captured CD3
# T34 construct: scFv on the Fab heavy chain; also called TCE-14 (F104A)
# [30] = target: T35, TCE-9 (anti-CD3 scFv V99A; anti-TROP2 wt); assay: competition ELISA, TCE on captured CD3
# T35 construct: scFv on the Fab heavy chain
# [31] = target: T36, TCE-11 (anti-CD3 scFv H101A; anti-TROP2 wt); assay: competition ELISA, TCE on captured CD3
# T36 construct: scFv on the Fab heavy chain; also called TCE-11 (H101A)
# [32] = target: T13, TCE-10 (anti-CD3 scFv R100A; anti-TROP2 …); assay: competition ELISA (IC50 above limit); Table 42 Peptide-73 series (FIGS. 103A-103C), limit >3 µM
# [33] = target: B1; assay: as above
# [34] = target: T18, TCE-33 (anti-CD3 scFv F240A; anti-TROP2 …); assay: competition ELISA, TCE on captured CD3; remark: listed apart in the source
# [35] = target: T26, TCE-13 (anti-CD3 scFv N103A; anti-TROP2 …); assay: competition ELISA, TCE on captured CD3; remark: listed apart in the source
# [36] = target: T34, TCE-14 (anti-CD3 scFv F104A; anti-TROP2 …); assay: competition ELISA, TCE on captured CD3; remark: listed apart in the source
# [37] = target: T36, TCE-11 (anti-CD3 scFv H101A; anti-TROP2 …); assay: competition ELISA, TCE on captured CD3; remark: listed apart in the source
# [38] = target: T37, TCE-22 (anti-CD3 scFv W112A; anti-TROP2 wt); assay: competition ELISA, TCE on captured CD3; Table 41 run, peptide series with ceiling >100 µM
# T37 construct: scFv on the Fab heavy chain; also called TCE-22 (W112A)
# [39] = target: T38, TCE-31 (anti-CD3 scFv W238A; anti-TROP2 wt); assay: as above
# T38 construct: scFv on the Fab heavy chain; also called TCE-31 (W238A)
binder,measurement,setting,value
B1,EC50,Peptide-68,0.16 nM
same,EC50,Peptide-66,3.65 nM
same,EC50,Peptide-75,3.82 nM
same,EC50,Peptide-73 [1],0.83 nM
same,EC50,Peptide-72,0.76 nM
same,EC50,Peptide-71,1.92 nM
same,EC50,Peptide-74,3.46 nM
same,EC50,Peptide-69,0.95 nM
same,EC50,Peptide-67,0.66 nM
B2,EC50,Peptide-76,222 nM
same,EC50,Peptide-77,336 nM
same,EC50,Peptide-70,0.62 nM
same,EC50,Peptide-73 [2],8.87 nM
same,EC50,[3],0.95 nM
B3,IC50,[4],16800 nM
same,IC50,[5],2200 nM
same,IC50,[6],4620 nM
same,IC50,[7],1630 nM
same,IC50,[8],10 nM
same,IC50,[9],60 nM
same,IC50,[10],40 nM
same,IC50,[11],1900 nM
same,IC50,[12],100 nM
same,IC50,[13],420 nM
same,IC50,[14],620 nM
same,IC50,[15],60 nM
same,IC50,[16],230 nM
same,IC50,[17],230 nM
same,IC50,[18],140 nM
same,IC50,[19],820 nM
same,IC50,[20],650 nM
same,IC50,[21],310 nM
same,IC50,[22],> 3000 nM
same,IC50,[23],100 nM
same,IC50,[24],50 nM
same,IC50,[25],110 nM
same,IC50,[26],230 nM
same,IC50,[27],140 nM
same,IC50,[28],> 3000 nM
same,IC50,[29],70 nM
same,IC50,[30],160 nM
same,IC50,[31],1220 nM
same,IC50,[32],3000 nM
same,IC50,[33],3000 nM
same,IC50,[34],3020 nM
same,IC50,[35],4070 nM
same,IC50,[36],200 nM
same,IC50,[37],2930 nM
same,IC50,[38],39100 nM
same,IC50,[39],25900 nM
